Assay results: publication PMC4720517, “Structural basis for activation, assembly and membrane binding of ESCRT-III Snf7 filaments” (eLife, 2015)

B1: full-length Snf7^(R52E E88C H118C), MTSL-labeled (natural protein, Saccharomyces cerevisiae, UniProt P39929 1-240, looked up)
chain: MWSSLFGWTSSNAKNKESPTKAIVRLREHINLLSKKQSHLRTQITNQENEAEIFLTKGNKVMAKNALKKKKTIEQLLSKVEGTMESMCQQLFSIESANLNLETMRAMQEGAKAMKTICSGLDIDKVDETMDEIREQVELGDEISDAISRPLITGANEVDEDELDEELDMLAQENANQETSKIVNNNVNAAPISENKVSLPSVPSNKIKQSENSVKDGEEEEDEEDEDEKALRELQAEMGL
modifications: MTSL nitroxide spin label on cysteines 88 and 118
notes: Snf7 (Vps32), S. cerevisiae, full length; also called double-labeled Snf7^(R52E E88C H118C); source: E. coli BL21 or C41, purified (TALON, Superdex-200)
B2: full-length Snf7^(R52E K60C A66C), MTSL-labeled (natural protein, Saccharomyces cerevisiae, UniProt P39929 1-240, looked up)
chain: MWSSLFGWTSSNAKNKESPTKAIVRLREHINLLSKKQSHLRTQITNQENEAEIFLTKGNCVMAKNCLKKKKTIEQLLSKVEGTMESMEQQLFSIESANLNLETMRAMQEGAKAMKTIHSGLDIDKVDETMDEIREQVELGDEISDAISRPLITGANEVDEDELDEELDMLAQENANQETSKIVNNNVNAAPISENKVSLPSVPSNKIKQSENSVKDGEEEEDEEDEDEKALRELQAEMGL
modifications: MTSL nitroxide spin label on cysteines 60 and 66
notes: Snf7 (Vps32), S. cerevisiae, full length; also called double-labeled Snf7^(R52E K60C A66C); source: E. coli BL21 or C41, purified (TALON, Superdex-200)

Key:
[1] = biological target: the molecule itself; assay: negative stain TEM; recombinant Snf7 proteins, protofilament formation seen by negative stain transmission electron microscopy; as in Henne et al., 2012
[2] = biological target: T1, full-length Snf7^(R52E E95K E102K E109K) (Saccharomyces cerevisiae, UniProt P39929 1-240, R52E | E95K | E102K | E109K); assay: as above; settings: both partners purified
T1 construct: Snf7 (Vps32), S. cerevisiae, full length, charge inversion on α2/3; source: E. coli BL21 or C41, purified (TALON, Superdex-200)
T1 sequence (looked up): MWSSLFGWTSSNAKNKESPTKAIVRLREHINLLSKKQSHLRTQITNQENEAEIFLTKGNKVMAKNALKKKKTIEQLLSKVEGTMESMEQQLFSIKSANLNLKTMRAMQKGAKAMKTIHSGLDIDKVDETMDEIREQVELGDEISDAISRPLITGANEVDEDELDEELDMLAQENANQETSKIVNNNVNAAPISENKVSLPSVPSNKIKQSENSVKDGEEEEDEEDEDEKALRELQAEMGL

[3] = biological target: B2; assay: DEER (pulsed dipolar ESR spectroscopy); MTSL-labeled full-length Snf7 proteins (10-30 μM), alone or diluted with unlabeled Snf7^R52E, incubated with DOPC/DOPS/PI(3)P liposomes at room temperature for 15 min, pelleted by ultracentrifugation; 150 mM NaCl, 20 mM HEPES pD7.4; DEER at 60 K; settings: both partners purified
[4] = biological target: B1; assay: as above; settings: both partners purified
[5] = biological target: the molecule itself; assay: crystal structure; Snf7^core crystals, conformation A (2.4 Å) and B (1.6 Å), space group P2_1, one molecule in the asymmetric unit; protofilaments formed in the crystal lattice; grown at pH 5.5 (MES:NaOH, NaCl, PEG20,000), 4 °C

| Binder | binding result [1] | also measured |
| --- | --- | --- |
| B1 | binds | – |
| full-length Snf7^(R52E T20C), MTSL-labeled (natural protein, Saccharomyces cerevisiae, UniProt P39929 1-240, looked up, MTSL nitroxide spin label on cysteine 20, Snf7 (Vps32), S. cerevisiae, full length; source: E. coli BL21 or C41, purified (TALON, Superdex-200)) MWSSLFGWTSSNAKNKESPCKAIVRLREHINLLSKKQSHLRTQITNQENEAEIFLTKGNKVMAKNALKKKKTIEQLLSKVEGTMESMEQQLFSIESANLNLETMRAMQEGAKAMKTIHSGLDIDKVDETMDEIREQVELGDEISDAISRPLITGANEVDEDELDEELDMLAQENANQETSKIVNNNVNAAPISENKVSLPSVPSNKIKQSENSVKDGEEEEDEEDEDEKALRELQAEMGL | binds | – |
| full-length Snf7^(R52E R25E H29E K36E) (natural protein, Saccharomyces cerevisiae, UniProt P39929 1-240, looked up, Snf7 (Vps32), S. cerevisiae, full length, charge inversion on α1; source: E. coli BL21 or C41, purified (TALON, Superdex-200)) MWSSLFGWTSSNAKNKESPTKAIVELREEINLLSKEQSHLRTQITNQENEAEIFLTKGNKVMAKNALKKKKTIEQLLSKVEGTMESMEQQLFSIESANLNLETMRAMQEGAKAMKTIHSGLDIDKVDETMDEIREQVELGDEISDAISRPLITGANEVDEDELDEELDMLAQENANQETSKIVNNNVNAAPISENKVSLPSVPSNKIKQSENSVKDGEEEEDEEDEDEKALRELQAEMGL | – | binding result [2]: binds |
| full-length Snf7^(R52E K60C), MTSL-labeled (natural protein, Saccharomyces cerevisiae, UniProt P39929 1-240, looked up, MTSL nitroxide spin label on cysteine 60, Snf7 (Vps32), S. cerevisiae, full length; source: E. coli BL21 or C41, purified (TALON, Superdex-200)) MWSSLFGWTSSNAKNKESPTKAIVRLREHINLLSKKQSHLRTQITNQENEAEIFLTKGNCVMAKNALKKKKTIEQLLSKVEGTMESMEQQLFSIESANLNLETMRAMQEGAKAMKTIHSGLDIDKVDETMDEIREQVELGDEISDAISRPLITGANEVDEDELDEELDMLAQENANQETSKIVNNNVNAAPISENKVSLPSVPSNKIKQSENSVKDGEEEEDEEDEDEKALRELQAEMGL | binds | – |
| full-length Snf7^(R52E E88C), MTSL-labeled (natural protein, Saccharomyces cerevisiae, UniProt P39929 1-240, looked up, MTSL nitroxide spin label on cysteine 88, Snf7 (Vps32), S. cerevisiae, full length; source: E. coli BL21 or C41, purified (TALON, Superdex-200)) MWSSLFGWTSSNAKNKESPTKAIVRLREHINLLSKKQSHLRTQITNQENEAEIFLTKGNKVMAKNALKKKKTIEQLLSKVEGTMESMCQQLFSIESANLNLETMRAMQEGAKAMKTIHSGLDIDKVDETMDEIREQVELGDEISDAISRPLITGANEVDEDELDEELDMLAQENANQETSKIVNNNVNAAPISENKVSLPSVPSNKIKQSENSVKDGEEEEDEEDEDEKALRELQAEMGL | binds | – |
| full-length Snf7^(R52E K35C), MTSL-labeled (natural protein, Saccharomyces cerevisiae, UniProt P39929 1-240, looked up, MTSL nitroxide spin label on cysteine 35, Snf7 (Vps32), S. cerevisiae, full length; source: E. coli BL21 or C41, purified (TALON, Superdex-200)) MWSSLFGWTSSNAKNKESPTKAIVRLREHINLLSCKQSHLRTQITNQENEAEIFLTKGNKVMAKNALKKKKTIEQLLSKVEGTMESMEQQLFSIESANLNLETMRAMQEGAKAMKTIHSGLDIDKVDETMDEIREQVELGDEISDAISRPLITGANEVDEDELDEELDMLAQENANQETSKIVNNNVNAAPISENKVSLPSVPSNKIKQSENSVKDGEEEEDEEDEDEKALRELQAEMGL | binds | – |
| full-length Snf7^(R52E H118C), MTSL-labeled (natural protein, Saccharomyces cerevisiae, UniProt P39929 1-240, looked up, MTSL nitroxide spin label on cysteine 118, Snf7 (Vps32), S. cerevisiae, full length; source: E. coli BL21 or C41, purified (TALON, Superdex-200)) MWSSLFGWTSSNAKNKESPTKAIVRLREHINLLSKKQSHLRTQITNQENEAEIFLTKGNKVMAKNALKKKKTIEQLLSKVEGTMESMEQQLFSIESANLNLETMRAMQEGAKAMKTICSGLDIDKVDETMDEIREQVELGDEISDAISRPLITGANEVDEDELDEELDMLAQENANQETSKIVNNNVNAAPISENKVSLPSVPSNKIKQSENSVKDGEEEEDEEDEDEKALRELQAEMGL | binds | – |
| full-length Snf7^(R52E G140C), MTSL-labeled (natural protein, Saccharomyces cerevisiae, UniProt P39929 1-240, looked up, MTSL nitroxide spin label on cysteine 140, Snf7 (Vps32), S. cerevisiae, full length; source: E. coli BL21 or C41, purified (TALON, Superdex-200)) MWSSLFGWTSSNAKNKESPTKAIVRLREHINLLSKKQSHLRTQITNQENEAEIFLTKGNKVMAKNALKKKKTIEQLLSKVEGTMESMEQQLFSIESANLNLETMRAMQEGAKAMKTIHSGLDIDKVDETMDEIREQVELCDEISDAISRPLITGANEVDEDELDEELDMLAQENANQETSKIVNNNVNAAPISENKVSLPSVPSNKIKQSENSVKDGEEEEDEEDEDEKALRELQAEMGL | binds | – |
| B2 | binds | – |
| full-length Snf7^R52E (natural protein, Saccharomyces cerevisiae, UniProt P39929 1-240, looked up, purification as in Henne et al., 2012; also called unlabeled Snf7^R52E; source: E. coli BL21 or C41, purified (TALON, Superdex-200)) MWSSLFGWTSSNAKNKESPTKAIVRLREHINLLSKKQSHLRTQITNQENEAEIFLTKGNKVMAKNALKKKKTIEQLLSKVEGTMESMEQQLFSIESANLNLETMRAMQEGAKAMKTIHSGLDIDKVDETMDEIREQVELGDEISDAISRPLITGANEVDEDELDEELDMLAQENANQETSKIVNNNVNAAPISENKVSLPSVPSNKIKQSENSVKDGEEEEDEEDEDEKALRELQAEMGL | binds | binding result [3]: binds; binding result [4]: binds |
| Snf7^core (Saccharomyces cerevisiae Snf7 residues 12-150) (domain or fragment, UniProt P39929 12-150, looked up, Snf7 (Vps32), S. cerevisiae, core domain, residues 12-150; One molecule in the asymmetric unit; the protofilament is built by the crystal lattice; also called Snf7 core domain; open conformation A; source: E. coli Rosetta, purified (TALON, Superdex-200); not shown: His6-Sumo, N-terminal, cleaved) NAKNKESPTKAIVRLREHINLLSKKQSHLRTQITNQENEARIFLTKGNKVMAKNALKKKKTIEQLLSKVEGTMESMEQQLFSIESANLNLETMRAMQEGAKAMKTIHSGLDIDKVDETMDEIREQVELGDEISDAISRP | – | binding result [5]: binds |
